Target: T1, Biotinylated BRC Repeat 4 peptide (Bio-BRC4) (Homo sapiens, UniProt P51587)
T1 construct: host or cells: chemical synthesis for the peptide; E. coli BL21 Codon Plus for RAD51 F86E
Assay: SPR binding assay of RAD51 F86E on BRC4 coupled-chip
Settings: 5 μM in HBSEP, 60 seconds contact time; FIG. 9(a)
Method: Measurements were performed on the BIACORE X biosensor (BIACORE AB, Uppsala, Sweden). A continuous flow of de-gassed and 0.22 μm filtered HBSEP running buffer was employed at a constant temperature of 25° C.
Flow cells 1 and 2 of a pre-coated streptavidin Sensor chip SA were conditioned with three sequential 20 μl injections of 1 M NaCl, 50 mM NaOH at a flow rate of 20 μl/min.
Biotinylated BRC Repeat 4 peptide (Bio-BRC4) was immobilized to a level of 200 RU by affinity capture onto Flow cell 2 only. This was achieved by two 20 μl injections of 10 nM Bio-BRC4 in HBS-EP at a flow rate of 20 μl/min. Flow cell 1 represented a reference surface to correct for any refractive index variations and thus was not derivated. Flow cells 1 and 2 were both subsequently treated with three successive injections of 40 μl regeneration solution (10 mM Glycine pH 2.5) at a flow rate of 40 μl/min to ensure baseline stabilization.
The […] mutant RAD51 Phe86Glu (F86E) or Ala89Glu (A89E) protein in solution can then be run over the BRC repeat coupled-chip in a Biacore instrument (Biacore AB, Uppsala, Sweden) or other suitable measuring device for surface-plasmon resonance. Reference corrected data was analysed using BIAevalution software (3.2V) and sensorgrams plotted. […]

T1 sequence (P51587 1517-1551 limits assumed): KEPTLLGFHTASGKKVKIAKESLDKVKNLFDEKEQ
T1 sequence (Q06609 whole entry F86E partner): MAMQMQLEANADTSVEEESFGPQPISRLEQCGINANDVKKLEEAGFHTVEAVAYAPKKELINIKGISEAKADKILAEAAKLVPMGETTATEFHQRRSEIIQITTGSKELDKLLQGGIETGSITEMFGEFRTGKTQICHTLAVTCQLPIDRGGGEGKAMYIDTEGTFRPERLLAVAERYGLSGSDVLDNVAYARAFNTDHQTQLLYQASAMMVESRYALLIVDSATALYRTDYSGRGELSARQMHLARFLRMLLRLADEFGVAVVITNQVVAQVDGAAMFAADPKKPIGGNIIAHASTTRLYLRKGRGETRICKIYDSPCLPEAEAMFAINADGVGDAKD

B1: RAD51 F86E: non-oligomerising mutant RAD51 with Phe86 replaced by glutamic acid (protein, UniProt Q06609 2-339, looked up, variant F86E)
DNA repair protein RAD51 …: AMQMQLEANADTSVEEESFGPQPISRLEQCGINANDVKKLEEAGFHTVEAVAYAPKKELINIKGISEAKADKILAEAAKLVPMGETTATEFHQRRSEIIQITTGSKELDKLLQGGIETGSITEMFGEFRTGKTQICHTLAVTCQLPIDRGGGEGKAMYIDTEGTFRPERLLAVAERYGLSGSDVLDNVAYARAFNTDHQTQLLYQASAMMVESRYALLIVDSATALYRTDYSGRGELSARQMHLARFLRMLLRLADEFGVAVVITNQVVAQVDGAAMFAADPKKPIGGNIIAHASTTRLYLRKGRGETRICKIYDSPCLPEAEAMFAINADGVGDAKD
binding to the BRC4 coupled-chip: binding can easily be detected

Source: US20060234293A1, “Polypeptide methods and means” (priority 2002, published 2006)
